B1: BBSome complex member BBS5 (Homo sapiens), Q8N3I7 (parent)
chain: MSVLDALWEDRDVRFDLSAQQMKTRPGEVLIDCLDSIEDTKGNNGDRGRLLVTNLRILWHSLALSRVNVSVGYNCILNITTRTANSKLRGQTEALYILTKCNSTRFEFIFTNLVPGSPRLFTSVMAVHRAYETSKMYRDFKLRSALIQNKQLRLLPQEHVYDKINGVWNLSSDQGNLGTFFITNVRIVWHANMNDSFNVSIPYLQIRSIKIRDSKFGLALVIESSQQSGGYVLGFKIDPVEKLQESVKEINSLHKVYSASPIFGVDYEMEEKPQPLEALTVEQIQDDVEIDSDGHTDAFVAYFADGNKQQDREPVFSEELGLAIEKLKDGFTLQGLWEVMS
partner: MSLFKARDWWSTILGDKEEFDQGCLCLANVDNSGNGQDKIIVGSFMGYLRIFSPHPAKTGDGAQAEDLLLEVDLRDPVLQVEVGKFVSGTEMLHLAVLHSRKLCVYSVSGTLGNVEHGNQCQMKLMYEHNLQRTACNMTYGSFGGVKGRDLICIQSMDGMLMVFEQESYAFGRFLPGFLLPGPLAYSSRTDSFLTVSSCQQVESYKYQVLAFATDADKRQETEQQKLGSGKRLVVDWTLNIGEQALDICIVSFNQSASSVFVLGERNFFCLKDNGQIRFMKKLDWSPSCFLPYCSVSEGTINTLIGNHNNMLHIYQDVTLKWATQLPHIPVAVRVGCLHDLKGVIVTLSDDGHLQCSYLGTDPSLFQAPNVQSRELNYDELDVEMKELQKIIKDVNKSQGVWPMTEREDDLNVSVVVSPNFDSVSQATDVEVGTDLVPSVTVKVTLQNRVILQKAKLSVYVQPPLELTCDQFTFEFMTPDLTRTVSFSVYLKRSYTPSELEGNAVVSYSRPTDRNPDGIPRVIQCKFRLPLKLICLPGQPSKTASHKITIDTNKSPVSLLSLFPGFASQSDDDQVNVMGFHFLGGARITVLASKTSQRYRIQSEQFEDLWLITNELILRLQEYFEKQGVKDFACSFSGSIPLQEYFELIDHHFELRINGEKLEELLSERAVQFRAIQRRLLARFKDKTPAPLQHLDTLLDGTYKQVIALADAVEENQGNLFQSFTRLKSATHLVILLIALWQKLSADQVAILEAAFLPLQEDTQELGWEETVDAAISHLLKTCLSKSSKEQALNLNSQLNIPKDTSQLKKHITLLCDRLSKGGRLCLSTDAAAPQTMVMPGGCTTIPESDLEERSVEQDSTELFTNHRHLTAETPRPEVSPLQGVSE

Variants of: B1
Settings: with pthb1_human BBS9, Q3SYG4

| Variant | effect of a mutation on the interaction |
| --- | --- |
| N149E | with no effect |
| N149K | with no effect |
| N149A | with no effect |
| T111K | with no effect |
| T111E | with no effect |
| T111A | with no effect |
| Y137A | with no effect |
| Y137K | with no effect |
| Y137E | with no effect |
| A145E | with no effect |
| A145K | with no effect |
| A145T | disrupting interaction strength |
| T133A | with no effect |
| T133E | with no effect |
| T133K | with no effect |
| T133I | disrupting interaction strength |
| R138E | with no effect |
| R138A | with no effect |
| R138K | with no effect |
| Q91K | with no effect |
| Q91E | with no effect |
| F110A | with no effect |
| F110E | with no effect |

| Variant | effect of a mutation on the interaction |
| --- | --- |
| F110K | with no effect |
| C101A | with no effect |
| C101E | with no effect |
| C101K | with no effect |
| S123A | with no effect |
| S123E | with no effect |
| S123F | disrupting interaction strength |
| S123K | with no effect |
| Y131E | with no effect |
| Y131K | with no effect |
| Y131A | with no effect |
| I97A | with no effect |
| I97K | disrupting interaction strength |
| I97E | with no effect |
| L154A | with no effect |
| L154E | with no effect |
| A126E | with no effect |
| A126K | with no effect |
| V114E | with no effect |
| V114K | with no effect |
| V114A | with no effect |
| E107K | with no effect |
| E107A | with no effect |

| Variant | effect of a mutation on the interaction |
| --- | --- |
| D139A | with no effect |
| D139E | with no effect |
| D139K | with no effect |
| L113K | with no effect |
| L113A | with no effect |
| L113E | with no effect |
| M136A | with no effect |
| M136K | with no effect |
| M136E | with no effect |
| T92E | with no effect |
| T92K | with no effect |
| T92A | with no effect |
| R143K | with no effect |
| R143A | with no effect |
| R143E | with no effect |
| M125A | with no effect |
| M125E | with no effect |
| M125K | with no effect |
| L98A | with no effect |
| L98E | with no effect |
| L98K | with no effect |
| S103E | with no effect |
| S103K | with no effect |

| Variant | effect of a mutation on the interaction |
| --- | --- |
| S103A | with no effect |
| T104I | disrupting interaction strength |
| T104K | with no effect |
| T104E | with no effect |
| T104A | with no effect |
| A130K | disrupting interaction strength |
| A130E | with no effect |
| Q148K | with no effect |
| Q148E | with no effect |
| Q148A | with no effect |
| T99K | with no effect |
| T99A | with no effect |
| T99E | disrupting interaction strength |
| L152E | with no effect |
| L152K | with no effect |
| L152A | with no effect |
| L120E | with no effect |
| L120K | with no effect |
| L120A | with no effect |
| S134A | with no effect |
| S134E | with no effect |
| S134K | with no effect |

— IntAct's records for PubMed 29039417
